Among the data in patent publication EP4703474A1, “ANTI-LRRC15 ANTIBODY” (priority 2023, dated 2024) are binding result and Kd values, retold here.

Assay [1] concerns the target T1, human LRRC15 (full-length, on cells) (human, UniProt Q8TF66 22-581).
T1 construct: also called hLRRC15; endogenous LRRC15 of Hs294T
T1 sequence: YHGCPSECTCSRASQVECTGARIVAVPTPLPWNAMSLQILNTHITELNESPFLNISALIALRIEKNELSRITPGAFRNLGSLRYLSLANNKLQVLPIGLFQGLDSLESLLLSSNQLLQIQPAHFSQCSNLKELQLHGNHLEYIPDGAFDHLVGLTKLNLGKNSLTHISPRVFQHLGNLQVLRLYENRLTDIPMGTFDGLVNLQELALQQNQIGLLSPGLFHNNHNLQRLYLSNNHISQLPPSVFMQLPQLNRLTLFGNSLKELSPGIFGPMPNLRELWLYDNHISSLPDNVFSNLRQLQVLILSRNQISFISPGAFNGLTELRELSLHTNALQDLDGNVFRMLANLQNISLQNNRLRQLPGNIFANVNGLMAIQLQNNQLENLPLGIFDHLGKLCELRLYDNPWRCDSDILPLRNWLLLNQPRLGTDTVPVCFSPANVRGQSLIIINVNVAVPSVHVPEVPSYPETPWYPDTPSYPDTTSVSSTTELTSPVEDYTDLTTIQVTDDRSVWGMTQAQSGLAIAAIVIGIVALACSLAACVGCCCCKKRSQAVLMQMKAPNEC
Description: Cell-ELISA, hybridoma supernatant on HEK293α transfected with pcDNA3.1-hLRRC15. (In general: An ELISA detects its analyte on a solid surface through an enzyme-linked reagent.)

Assay [2] addresses T2, cynomolgus monkey LRRC15 extracellular domain expressed on HEK293α (pDisplay-cynoLRRC15 ECD) (cynomolgus monkey, UniProt Q8TF66 22-538 (human entry)).
T2 construct: vector-derived parts not described
T2 chain: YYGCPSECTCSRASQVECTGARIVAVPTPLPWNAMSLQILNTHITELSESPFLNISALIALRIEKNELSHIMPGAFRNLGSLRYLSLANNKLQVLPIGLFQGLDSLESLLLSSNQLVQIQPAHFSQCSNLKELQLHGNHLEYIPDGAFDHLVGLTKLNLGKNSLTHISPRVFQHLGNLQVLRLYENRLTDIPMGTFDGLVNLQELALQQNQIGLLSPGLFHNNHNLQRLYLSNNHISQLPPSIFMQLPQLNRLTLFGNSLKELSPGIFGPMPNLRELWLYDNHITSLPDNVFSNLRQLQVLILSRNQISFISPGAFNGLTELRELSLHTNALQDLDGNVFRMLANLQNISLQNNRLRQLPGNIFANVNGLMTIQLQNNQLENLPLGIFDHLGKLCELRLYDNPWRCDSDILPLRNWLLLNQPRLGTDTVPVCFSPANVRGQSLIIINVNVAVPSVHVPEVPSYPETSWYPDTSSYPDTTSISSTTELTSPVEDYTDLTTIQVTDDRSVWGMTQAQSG
Description: flow cytometry, transfected HEK293α, 10 µg/mL.

The target of assay [3] is T1, human LRRC15 (full-length, on cells). As to the kind of experiment: flow cytometry, endogenous LRRC15 on human melanoma line Hs294T.
For assay [4], the target named is T3, human LRRC15 extracellular domain expressed on HEK293α (pDisplay-hLRRC15 ECD) (human, UniProt Q8TF66 22-538).
T3 construct: also called WT; human LRRC15 wild-type
T3 sequence: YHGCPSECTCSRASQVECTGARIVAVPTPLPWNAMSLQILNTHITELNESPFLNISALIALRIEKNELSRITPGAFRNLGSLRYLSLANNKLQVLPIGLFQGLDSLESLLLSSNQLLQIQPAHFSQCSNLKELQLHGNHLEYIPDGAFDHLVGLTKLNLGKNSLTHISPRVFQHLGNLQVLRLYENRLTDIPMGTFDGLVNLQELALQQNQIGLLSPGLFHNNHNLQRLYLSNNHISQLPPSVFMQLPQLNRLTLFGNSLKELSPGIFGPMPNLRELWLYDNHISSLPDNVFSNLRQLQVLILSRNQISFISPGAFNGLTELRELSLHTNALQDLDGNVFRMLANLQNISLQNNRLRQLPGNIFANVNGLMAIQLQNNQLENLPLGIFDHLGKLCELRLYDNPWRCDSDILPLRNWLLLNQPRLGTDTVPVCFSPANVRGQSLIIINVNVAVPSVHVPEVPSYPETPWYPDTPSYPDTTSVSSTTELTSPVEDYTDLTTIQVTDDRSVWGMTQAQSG
As to the kind of experiment: flow cytometry, HEK293α expressing WT human LRRC15 ECD. For orientation: A flow cytometer gives signals particle by particle.

For assay [5], the target named is T3, human LRRC15 extracellular domain …. As to the kind of experiment: flow cytometry, transfected HEK293α, 10 µg/mL.
For the next assay, the target named is T4, human LRRC15-His protein (human, UniProt Q8TF66 22-538).
T4 construct: Recombinant, expressed in mammalian cells; also called human LRRC15 antigen; hLRRC15-His
T4 sequence: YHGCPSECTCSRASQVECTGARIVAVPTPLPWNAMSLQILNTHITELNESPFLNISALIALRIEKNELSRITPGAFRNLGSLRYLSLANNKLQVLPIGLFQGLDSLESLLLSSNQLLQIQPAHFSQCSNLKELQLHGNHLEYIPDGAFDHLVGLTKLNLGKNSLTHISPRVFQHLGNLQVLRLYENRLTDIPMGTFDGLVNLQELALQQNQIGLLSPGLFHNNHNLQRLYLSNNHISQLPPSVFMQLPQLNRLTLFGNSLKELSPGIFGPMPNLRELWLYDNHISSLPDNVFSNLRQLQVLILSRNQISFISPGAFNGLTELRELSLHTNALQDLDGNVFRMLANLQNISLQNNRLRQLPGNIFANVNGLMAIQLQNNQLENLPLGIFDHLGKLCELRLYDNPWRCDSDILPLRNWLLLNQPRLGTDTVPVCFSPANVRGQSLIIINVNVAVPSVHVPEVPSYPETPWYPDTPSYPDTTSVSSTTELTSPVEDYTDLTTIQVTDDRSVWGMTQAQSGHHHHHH
As to the kind of experiment: SPR, Biacore T200; antibody captured by anti-human IgG (Fc), human LRRC15-His as analyte, 1:1 model.

Positions count from the first letter of the chain named.

B1: rR024 antibody (antibody, rat IgG2b, V domains shown)
VH: EVQLVESNGALVQPGRSLKLSCAASGFTFRDYYMAWVRQAPSKGLEWVASIGFDESRTYYRDSVKGRFTISRDDVKSTLYLQLDSLRSEDTATYYCTRHGVSYYSGDNWFAYWGQGALVIVSS
VL: DIVMTQSPSSLAVSAGETVIINCKSSQGLLYSGDQKNYLAWYQQKPGQSPKLLIYWASTRQSGVPDRFIGSGSGTDFTLTISSVQGEDLAIYYCQQYYDPPYTFGAGTKLELKR
notes: Rat monoclonal antibody from hybridoma culture supernatant; rat IgG2b, kappa light chain; also called clone rR024
In the case of B1, the binding result in assay [1] is “binds”.

B2: H02L01 antibody (antibody, human IgG1, kappa, L234A L235A, V domains shown)
VH: EVQLVESGGGLVQPGGSLRLSCAASGFTFRDYYMAWVRQAPGKGLEWVSSIGFDESRTYYADSVKGRFTISRDDSKNTLYLQMNSLRAEDTAVYYCARHGVSYYSGDNWFAYWGQGTLVTVSS
VL: DIQMTQSPSSLSASVGDRVTITCKSSQGLLYSGDQKNYLAWYQQKPGKAPKLLIYWASTRQSGVPSRFSGSGSGTDFTLTISSLQPEDFATYYCQQYYDPPYTFGQGTKVEIKR
notes: Humanized anti-LRRC15 antibody, human IgG1 / kappa; also called hR024 (hR024 H02 + hR024 L01)
Take B2: the binding result in assay [2], in assay [3] and in assay [4] was “binds” each time.

B3: H02L01-V2 antibody (antibody, human IgG1, kappa, L234A L235A, V domains shown)
VH: B2 VH with Y103R
VL: B2 VL
notes: Humanized anti-LRRC15 antibody, human IgG1 / kappa; also called hR024 (hR024 H02-V2 + hR024 L01)
As to B3, the binding result in assay [5], in assay [2] and in assay [3] was “binds” throughout.

B4: H09L03 antibody (antibody, human IgG1, kappa, L234A L235A, V domains shown)
VH: B2 VH with S49A, N77S, A97T
VL: B2 VL with A49S, S66D
notes: Humanized anti-LRRC15 antibody, human IgG1 / kappa; also called hR024 (hR024 H09 + hR024 L03)
Regarding B4, the binding result in assay [5], in assay [2] and in assay [3] was “binds” throughout.

B5: H02L01-V1 antibody (antibody, human IgG1, kappa, L234A L235A, V domains shown)
VH: B2 VH with Y103K
VL: B2 VL
notes: Humanized anti-LRRC15 antibody, human IgG1 / kappa; also called hR024 (hR024 H02-V1 + hR024 L01)
As usually defined, the Kd is the concentration at which binding is half-saturated. B5: the binding result in assay [2] is on record as “binds”. For the same molecule, binding with human LRRC15-His protein was characterised by a dissociation constant (Kd) of 59.9 nM.
